Measured values published in patent US20030162258A1, “Inhibitors of G protein-mediated signaling, methods of making them, and uses thereof” (Northwestern University, priority 2000, published 2003).

Assays:
[1] = biological target: thrombin receptor, PAR-1, in human microvascular endothelial cells (HMEC) (human) (UniProt P25116); assay: cell-based or functional assay
[2] = test system: PAR-1 gene promotor; assay: Thrombin-stimulated PAR-1 gene induction, luciferase reporter assay in HMEC; assay type: cell-based, human; conditions: 10 nanomolar thrombin, four hours, pertussis toxin 100 nanograms per milliliter pretreatment
Description: Thrombin treatment of cells induces the expression of the gene encoding its GPCR, PAR-1. This induction is mediated through the PAR-1 gene promotor sequence. The PAR-1 gene promotor sequence can be made to direct the expression of a reporter gene such as, the luciferase gene, thereby providing a means of observing the level of PAR-1 gene induction occurring in response to thrombin treatment of cells.
A PAR-1 promoter sequence comprising 1.82 kilobases was inserted upstream of the gene, Firefly (Photinus pyralis) luciferase in a pGL2 vector DNA to generate the plasmid DNA, PCR-1/Luc. The sea pansy (Renilla reniformis) luciferase gene operably linked to the Herpes Simplex Virus-Thymidine Kinase promoter (TK) in a pRL vector DNA (TK/pRL) served as an internal control to correct for experimental variation. HMEC were co-transfected with 100 nanograms each of a reporter DNA, PCR-1/Luc or TK/pRL, and one of pcDNA3.1, pcDNA-Gαi, or pcDNA-GαiR using protocols and reagents described in the previous Example. Twenty four hours post-transfection, HMEC were incubated in serum-free culture media (Dulbecco's Modified Eagles Medium, DMEM) for 2 hr at 37° C., following which, thrombin was added to the culture media at a concentration of 10 nanomolar. The cells were then incubated at 37° C. for four hours and lysed. […]

Sequence of UniProt P25116 (P25116 42-425): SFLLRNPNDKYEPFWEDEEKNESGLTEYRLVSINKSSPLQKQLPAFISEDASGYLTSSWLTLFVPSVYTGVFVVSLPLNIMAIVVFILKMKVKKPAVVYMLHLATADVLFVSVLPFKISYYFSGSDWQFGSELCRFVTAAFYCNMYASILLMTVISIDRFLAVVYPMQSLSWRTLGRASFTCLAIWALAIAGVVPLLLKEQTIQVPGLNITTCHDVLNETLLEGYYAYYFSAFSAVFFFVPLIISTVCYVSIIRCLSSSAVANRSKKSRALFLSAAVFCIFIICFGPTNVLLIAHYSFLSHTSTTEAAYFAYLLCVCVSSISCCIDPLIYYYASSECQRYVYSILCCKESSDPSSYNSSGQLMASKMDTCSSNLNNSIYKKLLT

Substance | decrease in transendothelial electrical resistance (TEER) following thrombin stimulation, HMEC [1] | level of luciferase activity after thrombin treatment (PAR-1 gene induction) [2]
Gαs carboxy terminal peptide encoded by minigene pcDNA-Gαs (from UniProt P63092 384-394) | 23% | –
Pertussis toxin | – | blocked the increase in luciferase levels
